First the molecules themselves.
T1: hANGPTL4-myc (human, UniProt Q9BY76)
T1 construct: residues 26-406; It is a different tag version from m7; also called ANGPTL4(26-406)-6HIS-myc
T1 sequence (single chain, looked up): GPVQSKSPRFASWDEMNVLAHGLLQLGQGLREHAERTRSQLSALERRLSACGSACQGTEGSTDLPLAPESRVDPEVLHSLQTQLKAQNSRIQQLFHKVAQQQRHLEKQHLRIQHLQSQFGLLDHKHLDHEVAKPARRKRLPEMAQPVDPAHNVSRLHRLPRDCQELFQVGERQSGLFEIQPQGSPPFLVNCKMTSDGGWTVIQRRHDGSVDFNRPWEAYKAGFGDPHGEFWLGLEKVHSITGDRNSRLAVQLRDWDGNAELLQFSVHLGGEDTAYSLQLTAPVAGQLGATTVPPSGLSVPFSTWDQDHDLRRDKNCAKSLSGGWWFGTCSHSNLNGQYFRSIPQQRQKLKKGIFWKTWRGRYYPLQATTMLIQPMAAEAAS

T2: Co-expressed human LPL/soluble GPIHBP1 complex (human, UniProt P06858 28-475; Q8IV16 21-151, biotin at the C-terminal end of GPIHBP1 in the ELISA and SPR assays)
T2 construct: Non-covalent 1:1 complex; also called LPL/GPIHBP1 complex; LPL-GPIHBP1 complex
T2 sequence 1: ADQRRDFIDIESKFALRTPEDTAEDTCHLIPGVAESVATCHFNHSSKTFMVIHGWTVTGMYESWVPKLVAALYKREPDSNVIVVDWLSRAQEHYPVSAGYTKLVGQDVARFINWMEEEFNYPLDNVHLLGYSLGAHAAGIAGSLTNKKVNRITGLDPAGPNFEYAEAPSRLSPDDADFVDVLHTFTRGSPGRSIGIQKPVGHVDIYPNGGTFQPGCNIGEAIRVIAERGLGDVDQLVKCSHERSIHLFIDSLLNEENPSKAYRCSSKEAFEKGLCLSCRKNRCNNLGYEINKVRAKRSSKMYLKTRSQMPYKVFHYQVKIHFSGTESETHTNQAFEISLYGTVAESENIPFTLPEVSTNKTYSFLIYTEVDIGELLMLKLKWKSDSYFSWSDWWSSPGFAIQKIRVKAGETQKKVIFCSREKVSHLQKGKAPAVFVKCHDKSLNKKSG
T2 sequence 2: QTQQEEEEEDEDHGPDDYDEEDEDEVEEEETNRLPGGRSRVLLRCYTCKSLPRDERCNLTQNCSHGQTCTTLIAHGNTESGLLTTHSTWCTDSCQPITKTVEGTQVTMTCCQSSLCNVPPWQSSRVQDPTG

T3: Recombinant human LPL (mature human lipoprotein lipase, amino acids 28-475) (human, UniProt P06858 28-475)
T3 sequence: T2 sequence 1

B1: LPL(28-475)-(G4S)4-hGPIHBP1(21-151)-FLAG-HIS6-Avi (enzyme)
chain: ADQRRDFIDIESKFALRTPEDTAEDTCHLIPGVAESVATCHFNHSSKTFMVIHGWTVTGMYESWVPKLVAALYKREPDSNVIVVDWLSRAQEHYPVSAGYTKLVGQDVARFINWMEEEFNYPLDNVHLLGYSLGAHAAGIAGSLTNKKVNRITGLDPAGPNFEYAEAPSRLSPDDADFVDVLHTFTRGSPGRSIGIQKPVGHVDIYPNGGTFQPGCNIGEAIRVIAERGLGDVDQLVKCSHERSIHLFIDSLLNEENPSKAYRCSSKEAFEKGLCLSCRKNRCNNLGYEINKVRAKRSSKMYLKTRSQMPYKVFHYQVKIHFSGTESETHTNQAFEISLYGTVAESENIPFTLPEVSTNKTYSFLIYTEVDIGELLMLKLKWKSDSYFSWSDWWSSPGFAIQKIRVKAGETQKKVIFCSREKVSHLQKGKAPAVFVKCHDKSLNKKSGGGGGSGGGGSGGGGSGGGGSQTQQEEEEEDEDHGPDDYDEEDEDEVEEEETNRLPGGRSRVLLRCYTCKSLPRDERCNLTQNCSHGQTCTTLIAHGNTESGLLTTHSTWCTDSCQPITKTVEGTQVTMTCCQSSLCNVPPWQSSRVQDPTGDYKDDDDKHHHHHHGGGLNDIFEAQKIEWHE
modifications: biotin on the C-terminal AviTag in the ELISA and SPR assays
notes: also called LPL-GPIHBP1 fusion polypeptide; LPL-GPIHBP1 fusion
B2: Human ANGPTL4(26-406)-FLAG-6HIS-Avi (ligand)
chain: GPVQSKSPRFASWDEMNVLAHGLLQLGQGLREHAERTRSQLSALERRLSACGSACQGTEGSTDLPLAPESRVDPEVLHSLQTQLKAQNSRIQQLFHKVAQQQRHLEKQHLRIQHLQSQFGLLDHKHLDHEVAKPARRKRLPEMAQPVDPAHNVSRLHRLPRDCQELFQVGERQSGLFEIQPQGSPPFLVNCKMTSDGGWTVIQRRHDGSVDFNRPWEAYKAGFGDPHGEFWLGLEKVHSITGDRNSRLAVQLRDWDGNAELLQFSVHLGGEDTAYSLQLTAPVAGQLGATTVPPSGLSVPFSTWDQDHDLRRDKNCAKSLSGGWWFGTCSHSNLNGQYFRSIPQQRQKLKKGIFWKTWRGRYYPLQATTMLIQPMAAEAASDYKDDDDKHHHHHHGGGLNDIFEAQKIEWHE
B3: Human soluble GPIHBP1(21-151)-FLAG-HIS6-Avi (receptor)
chain: QTQQEEEEEDEDHGPDDYDEEDEDEVEEEETNRLPGGRSRVLLRCYTCKSLPRDERCNLTQNCSHGQTCTTLIAHGNTESGLLTTHSTWCTDSCQPITKTVEGTQVTMTCCQSSLCNVPPWQSSRVQDPTGDYKDDDDKHHHHHHGGGLNDIFEAQKIEWHE
modifications: biotin on the C-terminal AviTag (BirA, site-specific) where used for immobilisation on streptavidin
notes: also called solGPIHBP1 with C-terminal FHA tag; C-terminally biotinylated GPIHBP1

Assay [1] deals with Recombinant human LPL (mature human lipoprotein lipase, amino acids 28-475) (human) (UniProt P06858). As to the kind of experiment: cell-based or functional assay.
In assay [2] the target is Co-expressed human LPL/soluble GPIHBP1 complex (human) (UniProt P06858). The experiment in a line: cell-based or functional assay.
Assay [3] deals with B2. As to the kind of experiment: MSD ELISA: 10 nM biotinylated fusion incubated with ANGPTL4 and captured on streptavidin; bound ANGPTL4 detected with an ANGPTL4 Ab. As for the experimental part:
LPL-GPIHBP1 complex or LPL-GPIHBP1 fusion (10 nM, site-specifically biotinylated at the C-terminal end of GPIHBP1) were incubated with increasing concentrations of ANGPTL4 (a 12 point 2-fold serial dilution with highest concentration of 100 nM). The reaction mix was then applied onto a streptavidin coated MSD. The presence of LPL and ANGPTL4 was detected using an LPL or ANGPTL4 specific Abs, which were subsequently quantified using sulpho-tagged secondary Ab. To generate a signal, lx MSD read buffer T was added and the plate was developed using a Sector Imager 6000 (Meso Scale Discovery).
First, the co-expressed LPL/GPIHBP1 complex or the LPL-GPIHBP1 fusion polypeptide was immobilized on a streptavidin surface through C-terminally biotinylated GPIHBP1. The proteins were then incubated with ANGPTL4 and changes in bound ANGPTL4 and LPL were monitored with respective high affinity antibodies. A schematic representation of the assay is depicted on top of FIG. 3, panel A. When the complex was incubated with ANGPTL4, displacement of LPL from the co-expressed LPL/GPIHBP1 complex as function of ANGPTL4 concentration was observed. On the other hand, ANGPTL4 was unable to displace LPL from the covalently linked LPL-GPIHBP1 fusion polypeptide (FIG. 3, panel A, left side). Correspondingly, when bound ANGPTL4 was probed, ANGPTL4 was not captured by the co-expressed LPL/GPIHBP1 complex. […]

The target of another assay is T1, hANGPTL4-myc. As to the kind of experiment: TR-FRET binding assay (anti-HA-Tb / anti-myc-D2). Target taken from paragraph 181 (fusion polypeptide); the methods instead describe a 6HIS-hLPL-HA-Flag/hGPIHBP1-Avi complex at 10 nM. [cont.) C) left graph].
Assay [4] deals with T2, Co-expressed human LPL/soluble GPIHBP1 …. As to the kind of experiment: TR-FRET dissociation of the LPL/GPIHBP1 complex (10 nM 6HIS-hLPL-HA-Flag / biotinylated hGPIHBP1-Avi, anti-HA-Tb / streptavidin-D2). ANGPTL4 binds LPL and displaces GPIHBP1. [cont.) C) right graph]. How it is done:
The assay for TR-FRET based detection of ANGPTL4 binding to the LPL/GPIHBP1 complex was carried out in 384-well plates (ProxiPlate™ 384-well white, Perkin Elmer, USA) in a final volume of 20 μl. The composition of the assay buffer was 20 mM HEPES pH=7.4, 100 mM NaCl, 10% HI-FBS, 5 mM CaCl₂). The assay procedure was as follows: First 4 μL/well of 5x 6HIS-hLPL-HA-Flag/biotinylated hGPIHBP1-Avi complex (50 nM stock in assay buffer, 10 nM complex final concentration) was added to 8 μL/well buffer. Then 4 μL/well 5x non-biotinylated ANGPTL4(26-406)-Flag-6HIS-Avi (final concentrations of 1 to 1000 nM) was added and incubation was carried out at room temperature for 1 hour. After incubation 4 μL 5× anti-HA-Tb/[…] (Cisbio, diluted in assay buffer to 1.25 nM anti-HA-Tb/50 nM streptavidin-D2 stock concentration) (0.3125 nM anti-HA-Tb/10 nM streptavidin-D2 final concentration) was added and the mixture was incubated at room temperature for 3 hours. Finally the plate was read on an Envision plate reader Ex=320 Em=665 Em=615.

The target of assay [5] is B1. The experiment in a line: cell-based or functional assay.
In assay [6] the target is T2, Co-expressed human LPL/soluble GPIHBP1 …. As to the kind of experiment: cell-based or functional assay.
The target of assay [7] is T3, Recombinant human LPL (mature human …). As to the kind of experiment: cell-based or functional assay.
Assay [8] deals with T2, Co-expressed human LPL/soluble GPIHBP1 …. The experiment in a line: TR-FRET dissociation of the LPL/GPIHBP1 complex: ANGPTL4 binds the LPL of the complex and displaces the labelled GPIHBP1. FRET ratio falls from about 20000 to about 1000 between log -1 and log 3 (nM). [cont.) D].
Assay [9] shares this target. As to the kind of experiment: TR-FRET dissociation of the LPL/GPIHBP1 complex: free hGPIHBP1-FHA binds the LPL of the complex and competes with the labelled GPIHBP1. FRET ratio falls from about 20000 to about 1000 between log -1 and log 3 (nM). [cont.) D].

“And” between values parts separate entries of the source, which are not always exact repeats. Equal entries are not always repeated.

As for “Human ANGPTL3(17-460)-FLAG-HIS6-Avi (from UniProt Q9Y5C1 17-460) (ligand)”, the IC50 of ANGPTL3 inactivation of LPL enzymatic activity in assay [1] is 7 nM and 8 nM. In assay [2], this molecule had an IC50 of ANGPTL3 inactivation of LPL enzymatic activity of 300 nM and a fold resistance to ANGPTL3 inactivation against LPL alone of more than 37 fold.

As to B1, the binding result (in [3]; with hANGPTL4-myc) was “binds” in each case.

In the case of B2, the “IC50 (read off the curve)” value in assay [4] is approximately 20 nM. Moreover, in assay [5], the “IC50 of ANGPTL4 inactivation of LPL enzymatic activity” value was 107 nM, the “fold increase of the IC50 of ANGPTL4 inactivation against LPL alone” value was more than 35 fold and the “fold increase of the IC50 of ANGPTL4 inactivation against the co-expressed LPL/GPIHBP1 complex” value is more than 5 fold. Further, in assay [6], the “IC50 of ANGPTL4 inactivation of LPL enzymatic activity” value was determined as 19 nM and the “fold resistance to ANGPTL4 inactivation against LPL alone” value is more than 6 fold. Besides, the “IC50 of ANGPTL4 inactivation of LPL enzymatic activity” value in assay [7] stood at 3 nM. For the same molecule, the IC50 in [8] stood at 18 nM.

With B3, the IC50 in assay [9] was found to be 15 nM.

Values taken from patent US20220025344A1 (Novartis, published 2022).
